This passage reports koff results from patent publication US20070099247A1.

For this test, the target named is Streptavidin (UniProt P22629). The test can be described thus: flow cytometry of YFP fluorescence on streptavidin coated beads after adding 1 uM biotin. In general terms: A flow cytometer gives signals particle by particle.
Chain of Streptavidin (P22629 37-163 limits assumed): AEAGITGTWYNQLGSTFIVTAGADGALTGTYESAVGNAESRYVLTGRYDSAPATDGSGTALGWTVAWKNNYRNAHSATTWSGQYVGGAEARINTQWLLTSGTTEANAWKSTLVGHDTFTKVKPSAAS

The term koff denotes the first-order rate constant of dissociation. A high value points to a short-lived complex. Consider “Yellow fluorescent protein with streptavidin binding peptide SA-1 inserted after Y145”, for which the dissociation rate constant (koff) turned out to be 0.02 s⁻¹.
